Measured values as given in paper PMC9371921, “Strand annealing and motor driven activities of SMARCAL1 and ZRANB3 are stimulated by RAD51 and the paralog complex” (Nucleic Acids Research, 2022).

Target: the molecule itself
Assay: mass photometry; 2 μl (50 nM) protein solution added into 18 μl protein elution buffer; movie recorded for 1 min; Refeyn 2MP mass photometer, NativeMark size marker

B1: RAD51 paralog complex RAD51B-RAD51C-RAD51D-XRCC2 (BCDX2) (complex, human)
chain 1: MGSKKLKRVGLSQELCDRLSRHQILTCQDFLCLSPLELMKVTGLSYRGVHELLCMVSRACAPKMQTAYGIKAQRSADFSPAFLSTTLSALDEALHGGVACGSLTEITGPPGCGKTQFCIMMSILATLPTNMGGLEGAVVYIDTESAFSAERLVEIAESRFPRYFNTEEKLLLTSSKVHLYRELTCDEVLQRIESLEEEIISKGIKLVILDSVASVVRKEFDAQLQGNLKERNKFLAREASSLKYLAEEFSIPVILTNQITTHLSGALASQADLVSPADDLSLSEGTSGSSCVIAALGNTWSHSVNTRLILQYLDSERRQILIAKSPLAPFTSFVYTIKEEGLVLQETTFCSVTQAELNWAPEILPPQPPEQLGLQMCHHTQLIF
chain 2: MRGKTFRFEMQRDLVSFPLSPAVRVKLVSAGFQTAEELLEVKPSELSKEVGISKAEALETLQIIRRECLTNKPRYAGTSESHKKCTALELLEQEHTQGFIITFCSALDDILGGGVPLMKTTEICGAPGVGKTQLCMQLAVDVQIPECFGGVAGEAVFIDTEGSFMVDRVVDLATACIQHLQLIAEKHKGEEHRKALEDFTLDNILSHIYYFRCRDYTELLAQVYLLPDFLSEHSKVRLVIVDGIAFPFRHDLDDLSLRTRLLNGLAQQMISLANNHRLAVILTNQMTTKIDRNQALLVPALGESWGHAATIRLIFHWDRKQRLATLYKSPSQKECTVLFQIKPQGFRDTVVTSACSLQTEGSLSTRKRSRDPEEEL
chain 3: MGVLRVGLCPGLTEEMIQLLRSHRIKTVVDLVSADLEEVAQKCGLSYKALVALRRVLLAQFSAFPVNGADLYEELKTSTAILSTGIGSLDKLLDAGLYTGEVTEIVGGPGSGKTQVCLCMAANVAHGLQQNVLYVDSNGGLTASRLLQLLQAKTQDEEEQAEALRRIQVVHAFDIFQMLDVLQELRGTVAQQVTGSSGTVKVVVVDSVTAVVSPLLGGQQREGLALMMQLARELKTLARDLGMAVVVTNHITRDRDSGRLKPALGRSWSFVPSTRILLDTIEGAGASGGRRMACLAKSSRQPTGFQEMVDIGTWGTSEQSATLQGDQT
chain 4: MCSAFHRAESGTELLARLEGRSSLKEIEPNLFADEDSPVHGDILEFHGPEGTGKTEMLYHLTARCILPKSEGGLEVEVLFIDTDYHFDMLRLVTILEHRLSQSSEEIIKYCLGRFFLVYCSSSTHLLLTLYSLESMFCSHPSLCLLILDSLSAFYWIDRVNGGESVNLQESTLRKCSQCLEKLVNDYRLVLFATTQTIMQKASSSSEEPSHASRRLCDVDIDYRPYLCKAWQQLVKHRMFFSKQDDSQSSNQFSLVSRCLKSNSLKKHFFIIGESGVEFC
notes: human RAD51B, codon-optimized for Sf9, from pFB-FLAG-RAD51Bco-10xHis-RAD51Cco; human RAD51C, codon-optimized for Sf9, from pFB-FLAG-RAD51Bco-10xHis-RAD51Cco; Expressed as a heterotetramer; by mass photometry the preparation was consistent with a dimer of the heterotetramer; also called BCDX2 complex; FLAG-BCDX2 complex; source: Sf9, co-infected with two baculoviruses, purified (Ni-NTA, then …)
  stoichiometry N: 2
